Assay [1] addresses T1, human PD-1 expressed on cells (human, UniProt Q15116 25-288).
T1 construct: whole, on cells; also called PD-1 expressing CHO cell; PD-1 transfected CHO-S cells
The assay is described as follows: FACS on CHO-S cells expressing human PD-1. How it is done:
3.1 Binding affinity of PD-1 antibodies to cell surface PD-1 molecules tested by flow cytometry (FACS): Antibody binding affinity to cell surface PD-1 was performed by FACS analysis. CHO-S cells expressing human PD-1 were transferred in to 96-well U-bottom plates (BD) at a density of 5×10⁵ cells/ml. Tested antibodies were 1:2 serially diluted in wash buffer (1×PBS/1% BSA) and incubated with cells at 4° C. for 1 h. The secondary antibody goat anti-human IgG Fc FITC (3.0 moles FITC per mole IgG, (Jackson Immunoresearch Lab) was added and incubated at 4° C. in the dark for 1 h. The cells were then washed once and resuspended in 1×PBS/1% BSA, and analyzed by flow cytometery (BD). Fluorescence intensity will be converted to bound molecules/cell based on the quantitative beads Quantum™ MESF Kits, Bangs Laboratories, Inc.). KD was calculated using Graphpad Prism5.

Assay [2] has as its target T2, hPD-1 ECD-His point mutant V 64 (to alanine) (human, UniProt Q15116 25-170).
T2 construct: extracellular domain
The assay is described as follows: ELISA, antibody coated, His-tagged PD-1 mutant supernatant; fold change vs silent alanine substitutions. How it is done:
(§1) After interacting with the supernatant that contains quantified PD-1 mutant, HRP conjugated anti-His antibody (Rockland, Cat#200-303-382) was added as detection antibody. Absorbance was normalized according to the average of control mutants. After setting an additional cutoff to t4he binding fold change (<0.55), the final determined epitope residues were identified.
(In general: ELISA stands for enzyme-linked immunosorbent assay.)

The target in assay [3] is T3, hPD-1 ECD-His point mutant A 113 (to glycine) (human, UniProt Q15116 25-170).
T3 construct: extracellular domain
Described as above. As for the experimental part:
as §1

In assay [4] the target is T4, hPD-1 ECD-His point mutant K 131 (to alanine) (human, UniProt Q15116 25-170).
T4 construct: extracellular domain
Described as above. As for the experimental part: as §1

For assay [5], the target named is T5, hPD-1 ECD-His point mutant D 85 (to alanine) (human, UniProt Q15116 25-170).
T5 construct: extracellular domain
The assay is described as above. As for the experimental part:
as §1

Assay [6] concerns the target T6, hPD-1 ECD-His point mutant A 50 (to glycine) (human, UniProt Q15116 25-170).
T6 construct: extracellular domain
Described as above. How it is done: as §1

Assay [7] deals with T7, hPD-1 ECD-His point mutant G 47 (to alanine) (human, UniProt Q15116 25-170).
T7 construct: extracellular domain
Described as above. As for the experimental part:
as §1

Assay [8] addresses T8, hPD-1 ECD-His point mutant I 126 (to alanine) (human, UniProt Q15116 25-170).
T8 construct: extracellular domain
The assay is described as above. How it is done: as §1

The target in assay [9] is T9, hPD-1 ECD-His point mutant L 65 (to alanine) (human, UniProt Q15116 25-170).
T9 construct: extracellular domain
Described as above. As for the experimental part:
as §1

Assay [10] concerns the target T10, hPD-1 ECD-His point mutant P 130 (to alanine) (human, UniProt Q15116 25-170).
T10 construct: extracellular domain
The assay is described as above. As for the experimental part: as §1

The target in assay [11] is T11, hPD-1 ECD-His point mutant Q 133 (to alanine) (human, UniProt Q15116 25-170).
T11 construct: extracellular domain
The description is as above. How it is done: as §1

Assay [12] has as its target T12, hPD-1 ECD-His point mutant I 134 (to alanine) (human, UniProt Q15116 25-170).
T12 construct: extracellular domain
Described as above. How it is done:
as §1

The target of assay [13] is T13, hPD-1 ECD-His point mutant N 49 (to alanine) (human, UniProt Q15116 25-170).
T13 construct: extracellular domain
The description is as above. As for the experimental part: as §1

In assay [14] the target is T14, hPD-1 ECD-His point mutant S 137 (to alanine) (human, UniProt Q15116 25-170).
T14 construct: extracellular domain
The description is as above. As for the experimental part:
as §1

Assay [15] addresses T15, hPD-1 ECD-His point mutant L 128 (to alanine) (human, UniProt Q15116 25-170).
T15 construct: extracellular domain
The description is as above. As for the experimental part:
as §1

The target in assay [16] is T16, hPD-1 ECD-His point mutant A 129 (to glycine) (human, UniProt Q15116 25-170).
T16 construct: extracellular domain
Described as above. As for the experimental part:
as §1

Assay [17] concerns the target T17, hPD-1 ECD-His point mutant P 39 (to alanine) (human, UniProt Q15116 25-170).
T17 construct: extracellular domain
Described as above. How it is done: as §1

The target of assay [18] is T18, hPD-1 ECD-His point mutant L 142 (to alanine) (human, UniProt Q15116 25-170).
T18 construct: extracellular domain
The assay is described as above. How it is done: as §1

For assay [19], the target named is T19, hPD-1 ECD-His point mutant F 82 (to alanine) (human, UniProt Q15116 25-170).
T19 construct: extracellular domain
The description is as above. How it is done:
as §1

The target of assay [20] is T20, hPD-1 ECD-His point mutant V 144 (to alanine) (human, UniProt Q15116 25-170).
T20 construct: extracellular domain
The description is as above. How it is done:
as §1

Assay [21] has as its target T21, hPD-1 ECD-His point mutant M 108 (to alanine) (human, UniProt Q15116 25-170).
T21 construct: extracellular domain
The description is as above. As for the experimental part:
as §1

T3 sequence (Q15116 other isoform, or with tags, fused parts or gaps mutant): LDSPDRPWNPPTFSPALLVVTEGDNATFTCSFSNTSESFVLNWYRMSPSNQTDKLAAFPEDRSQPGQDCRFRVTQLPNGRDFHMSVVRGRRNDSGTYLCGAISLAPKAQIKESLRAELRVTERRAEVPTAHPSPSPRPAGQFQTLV
T21 sequence (Q15116 other isoform, or with tags, fused parts or gaps mutant): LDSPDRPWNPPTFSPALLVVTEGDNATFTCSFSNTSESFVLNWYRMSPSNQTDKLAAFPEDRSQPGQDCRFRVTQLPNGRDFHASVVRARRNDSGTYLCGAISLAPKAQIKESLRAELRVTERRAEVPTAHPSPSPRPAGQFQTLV
T11 sequence (Q15116 other isoform, or with tags, fused parts or gaps mutant): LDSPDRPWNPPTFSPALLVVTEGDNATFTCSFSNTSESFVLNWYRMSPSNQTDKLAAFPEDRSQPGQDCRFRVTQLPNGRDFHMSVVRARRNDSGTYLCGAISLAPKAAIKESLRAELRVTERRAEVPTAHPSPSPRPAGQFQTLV
T7 sequence (Q15116 other isoform, or with tags, fused parts or gaps mutant): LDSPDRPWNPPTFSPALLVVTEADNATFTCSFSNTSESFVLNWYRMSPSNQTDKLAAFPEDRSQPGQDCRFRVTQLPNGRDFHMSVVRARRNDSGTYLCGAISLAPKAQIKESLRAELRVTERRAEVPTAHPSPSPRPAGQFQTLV
T17 sequence (Q15116 other isoform, or with tags, fused parts or gaps mutant): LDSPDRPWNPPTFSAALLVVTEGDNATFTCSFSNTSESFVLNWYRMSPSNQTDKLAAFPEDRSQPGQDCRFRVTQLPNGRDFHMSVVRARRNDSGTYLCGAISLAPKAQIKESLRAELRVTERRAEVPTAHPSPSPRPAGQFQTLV
T8 sequence (Q15116 other isoform, or with tags, fused parts or gaps mutant): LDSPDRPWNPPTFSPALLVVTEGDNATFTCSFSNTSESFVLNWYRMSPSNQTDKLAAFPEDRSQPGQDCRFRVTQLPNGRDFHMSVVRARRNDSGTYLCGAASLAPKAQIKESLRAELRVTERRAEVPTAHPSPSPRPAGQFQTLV
T14 sequence (Q15116 other isoform, or with tags, fused parts or gaps mutant): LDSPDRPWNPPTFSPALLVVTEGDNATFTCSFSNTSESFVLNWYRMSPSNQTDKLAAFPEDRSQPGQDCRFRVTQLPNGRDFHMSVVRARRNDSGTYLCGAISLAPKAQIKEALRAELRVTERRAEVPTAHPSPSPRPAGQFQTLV
T2 sequence (Q15116 other isoform, or with tags, fused parts or gaps mutant): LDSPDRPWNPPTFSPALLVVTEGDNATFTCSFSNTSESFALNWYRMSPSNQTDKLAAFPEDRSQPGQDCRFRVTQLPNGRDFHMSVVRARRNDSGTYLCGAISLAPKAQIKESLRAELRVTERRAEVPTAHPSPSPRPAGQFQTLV
T1 sequence (Q15116 25-288): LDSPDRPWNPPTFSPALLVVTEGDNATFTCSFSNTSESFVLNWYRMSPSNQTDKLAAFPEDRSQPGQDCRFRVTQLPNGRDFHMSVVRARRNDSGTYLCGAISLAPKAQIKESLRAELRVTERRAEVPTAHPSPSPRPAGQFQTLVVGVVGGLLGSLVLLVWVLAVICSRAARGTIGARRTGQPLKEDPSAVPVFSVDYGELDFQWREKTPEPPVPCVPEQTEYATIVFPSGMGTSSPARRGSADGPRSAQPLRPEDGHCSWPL
T18 sequence (Q15116 other isoform, or with tags, fused parts or gaps mutant): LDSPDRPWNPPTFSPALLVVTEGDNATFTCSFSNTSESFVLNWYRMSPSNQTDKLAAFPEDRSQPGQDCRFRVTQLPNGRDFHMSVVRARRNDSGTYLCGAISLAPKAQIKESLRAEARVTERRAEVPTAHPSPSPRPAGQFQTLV
T15 sequence (Q15116 other isoform, or with tags, fused parts or gaps mutant): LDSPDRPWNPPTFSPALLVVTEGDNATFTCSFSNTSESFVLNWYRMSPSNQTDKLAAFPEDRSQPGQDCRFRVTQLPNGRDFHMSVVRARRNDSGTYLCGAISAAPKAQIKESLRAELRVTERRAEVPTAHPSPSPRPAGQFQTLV
T9 sequence (Q15116 other isoform, or with tags, fused parts or gaps mutant): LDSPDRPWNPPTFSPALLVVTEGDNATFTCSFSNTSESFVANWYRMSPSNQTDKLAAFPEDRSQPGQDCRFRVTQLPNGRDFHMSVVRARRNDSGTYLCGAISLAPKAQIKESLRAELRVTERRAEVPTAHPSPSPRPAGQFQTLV
T10 sequence (Q15116 other isoform, or with tags, fused parts or gaps mutant): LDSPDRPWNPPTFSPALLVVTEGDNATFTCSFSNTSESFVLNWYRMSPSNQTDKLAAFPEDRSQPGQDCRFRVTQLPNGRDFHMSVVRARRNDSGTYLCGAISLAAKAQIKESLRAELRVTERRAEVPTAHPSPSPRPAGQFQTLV
T5 sequence (Q15116 other isoform, or with tags, fused parts or gaps mutant): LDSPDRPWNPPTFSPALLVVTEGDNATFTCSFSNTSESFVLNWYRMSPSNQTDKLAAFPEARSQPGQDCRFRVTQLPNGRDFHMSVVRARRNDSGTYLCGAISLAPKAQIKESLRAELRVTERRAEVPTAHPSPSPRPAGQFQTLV
T19 sequence (Q15116 other isoform, or with tags, fused parts or gaps mutant): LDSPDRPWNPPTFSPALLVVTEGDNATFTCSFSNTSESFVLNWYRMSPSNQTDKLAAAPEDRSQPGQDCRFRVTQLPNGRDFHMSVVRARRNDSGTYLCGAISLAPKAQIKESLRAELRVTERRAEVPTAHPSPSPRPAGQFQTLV
T12 sequence (Q15116 other isoform, or with tags, fused parts or gaps mutant): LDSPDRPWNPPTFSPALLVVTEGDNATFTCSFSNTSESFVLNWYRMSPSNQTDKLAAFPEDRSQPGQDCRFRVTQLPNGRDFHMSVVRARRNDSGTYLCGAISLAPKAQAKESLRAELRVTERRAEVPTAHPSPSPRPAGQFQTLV
T4 sequence (Q15116 other isoform, or with tags, fused parts or gaps mutant): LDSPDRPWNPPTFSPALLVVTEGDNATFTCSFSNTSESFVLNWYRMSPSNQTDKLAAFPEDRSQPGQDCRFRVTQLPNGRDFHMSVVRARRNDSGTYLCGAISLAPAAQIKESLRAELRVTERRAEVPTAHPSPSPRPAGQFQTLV
T13 sequence (Q15116 other isoform, or with tags, fused parts or gaps mutant): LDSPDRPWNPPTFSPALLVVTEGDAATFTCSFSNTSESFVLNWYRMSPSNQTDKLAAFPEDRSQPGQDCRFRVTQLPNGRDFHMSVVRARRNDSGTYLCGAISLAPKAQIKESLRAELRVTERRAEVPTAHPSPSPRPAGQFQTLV
T6 sequence (Q15116 other isoform, or with tags, fused parts or gaps mutant): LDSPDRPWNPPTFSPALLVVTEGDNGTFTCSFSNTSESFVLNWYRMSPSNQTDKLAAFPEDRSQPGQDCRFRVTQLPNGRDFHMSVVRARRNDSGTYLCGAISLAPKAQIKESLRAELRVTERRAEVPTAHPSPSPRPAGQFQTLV
T16 sequence (Q15116 other isoform, or with tags, fused parts or gaps mutant): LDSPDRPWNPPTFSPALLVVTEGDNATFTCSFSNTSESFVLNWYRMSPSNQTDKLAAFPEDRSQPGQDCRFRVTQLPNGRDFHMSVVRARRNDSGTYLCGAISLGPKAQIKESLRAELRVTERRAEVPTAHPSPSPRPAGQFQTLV
T20 sequence (Q15116 other isoform, or with tags, fused parts or gaps mutant): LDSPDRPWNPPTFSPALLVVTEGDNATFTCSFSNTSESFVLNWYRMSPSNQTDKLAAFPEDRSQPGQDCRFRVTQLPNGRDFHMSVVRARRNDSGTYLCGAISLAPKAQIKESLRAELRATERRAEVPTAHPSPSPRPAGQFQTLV

B1: 1.103.11 hAb (antibody, V domains shown)
VH: QLQLQESGPGLVKPSETLTLTCTVSADSISSTTYYWVWIRQPPGKGLEWIGSISYSGSTYYNPSLKSRVTVSVDTSKNQFSLKLNSVAATDTALYYCARHLGYNGRYLPFDYWGQGTLVTVSS
VL: QSALTQPASVSGSPGQSITISCTGTSSDVGFYNYVSWYQQHPGKAPELMIYDVSNRPSGVSDRFSGSKSGNTASLTISGLQAEDEADYYCSSYTNISTWVFGGGTKLTVL
notes: fully human monoclonal antibody with a human constant region of IgG4 isotype
A word on the EC50: it is the midpoint of the concentration-response curve. Read a high EC50 as weaker potency. Turning to B1, the EC50 in assay [1] was ~2 nM. In addition, the fold change in [2] was 0.32; in [3], 0.73; in assay [4], 0.43; in assay [5], 0.24; in assay [6], 0.73; in assay [7] it was 0.77. Also, the fold change in assay [8] was determined as 0.64; in [9], 0.75; in assay [10], 0.41; in assay [11], 0.37; in [12], 0.69; in assay [13] it was 0.73. Besides, the fold change worked out at 0.62 in assay [14]; 0.32 in assay [15]; 0.22 in [16]; 0.55 in [17]; 0.44 in assay [18]; 0.65 in assay [19]. The fold change in assay [20] was determined as 0.22; in [21] it was 0.56.
